The values below are quoted from earlier work in PMC13681993.

As a reminder, the Kd is the equilibrium constant for the complex coming apart.

The data set has as its target GAB1 pY627 (Homo sapiens) (UniProt Q13480). In words: fluorescence polarization. (Polarisation of emitted light reports the rotation of a fluorescent probe.)

As to PTPN11 N-SH2 (from UniProt Q06124), the Kd was 287 nM.
